In this test the target is T1, asialofetuin (Sigma-Aldrich A4781), coated on glass (UniProt P12763 19-359, an extensively glycosylated protein (so in the source)).
T1 construct: also called asialofetuin-coated surface
T1 sequence: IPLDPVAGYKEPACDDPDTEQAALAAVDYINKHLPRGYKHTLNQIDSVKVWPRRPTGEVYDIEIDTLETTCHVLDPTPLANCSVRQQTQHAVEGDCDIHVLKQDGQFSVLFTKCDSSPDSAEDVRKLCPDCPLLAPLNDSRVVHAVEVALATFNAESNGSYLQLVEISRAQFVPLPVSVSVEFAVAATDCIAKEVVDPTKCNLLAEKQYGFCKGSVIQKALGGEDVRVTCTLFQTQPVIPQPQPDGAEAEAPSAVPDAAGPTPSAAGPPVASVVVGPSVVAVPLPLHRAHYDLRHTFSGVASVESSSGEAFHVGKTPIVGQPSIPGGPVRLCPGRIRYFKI
Kind of test: in situ anti-FLAG immunostaining of biofilms grown on asialofetuin-coated glass.

B1: Bap1 (Biofilm-Associated Protein 1 of V. cholerae, wild type), tagged with 3xFLAG at the C-terminus (other)
chain: SSSSDIQTKLKWSWSTSVFHPESNQVMAAPIVVQLNDDNGDGKIDEKDVADIIVVTFEGNKYANGGYIRALSGVDGSELWSYSNGGVIADARYAPAAADLDGDGLIEIVSTSALTPYINILDHQGNIKKQLLKSASGWRSVGDIALADINGDGNIEILAADGVYSYESGLLFSHDWAPSSIAFDSNGDGQREVFANGTLYQNNGAYLWQYQANDTVWFSSVANLDGDDKPELVVSVPASLSTPENSEIAVLEHDGSVKWRVNNLSNPGGSVQAVSSFLGKPSSSATTVDAQSAVYGYTDWAHQQRVLAENHQLAIRSGAVVDAIGANSQNMIGGSGGSLSTIDTSKVRAIDVTYGKNKYTWKYGVLEMSFTLDNGAKVTVGSKDSAFTYLGLEWKTKTVPYLGVEWRTKTVSYWFFGWHTKQVAYLAPVWKEKTIPYAVPVTLSKSTTVRYDIPQGSQLLGMNVWSKEKHLFKHKQQVNAVQFLVGKVTADQSHMGIVYAGYYAVDMYDAQGNKVWSVANDDLNSGKIGVSAYDFTGDGIDEVLVQDRLRMRILDGQTGRVMGIIANSSGTLWEYPVVADLEGNNNASLIMVANDYDRESQVNHGVFVYESANPSKPWRNATRIWNQYAFNFSDINANGTIPTNAQPSWLTHNSFRSATIRVPLK
notes: also called VC1888; WT Bap1; not shown: C-terminal 3xFLAG tag
On to B1, for which the binding result is “no binding”.

The values are drawn from US20260103629A1 (YALE UNIVERSITY, published 2026).
